Test [1] has as its target T1, IL-13Rα2, biotinylated (human, UniProt Q14627 27-343, biotinylated (site not stated)).
T1 chain: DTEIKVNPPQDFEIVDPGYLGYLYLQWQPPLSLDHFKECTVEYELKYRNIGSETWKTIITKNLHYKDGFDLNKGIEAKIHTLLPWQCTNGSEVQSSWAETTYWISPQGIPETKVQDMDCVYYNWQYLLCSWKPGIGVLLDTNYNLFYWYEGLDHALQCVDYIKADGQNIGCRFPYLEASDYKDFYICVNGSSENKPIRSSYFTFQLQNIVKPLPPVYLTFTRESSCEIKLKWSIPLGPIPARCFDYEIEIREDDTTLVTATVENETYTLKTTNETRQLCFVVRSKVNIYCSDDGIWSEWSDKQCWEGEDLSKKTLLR
The experiment in a line: SPR; equilibrium.

The target of test [2] is T1, IL-13Rα2, biotinylated. The experiment in a line: SPR; kinetic.
The target in test [3] is C2. The experiment in a line: SPR; kinetic. Background: In SPR one partner is held on a chip, and binding of the other changes the refractive index at the surface.
In test [4] the target is A6. The experiment in a line: SPR; kinetic.
In test [5] the target is C12. Description: SPR; kinetic.
The target of test [6] is A8. The experiment in a line: SPR; kinetic.
For test [7], the target named is C10. The experiment in a line: SPR; kinetic.
Test [8] addresses C3. Description: SPR; kinetic.
The target of test [9] is A7. The experiment in a line: SPR; kinetic.
For test [10], the target named is C9. The experiment in a line: SPR; kinetic.
Test [11] has as its target C7. The experiment in a line: SPR; kinetic.
Test [12] addresses B6. The experiment in a line: SPR; equilibrium.
Test [13] has as its target T1, IL-13Rα2, biotinylated. The experiment in a line: SPR; kinetic.
Test [14] concerns the target B6. Description: SPR; kinetic.
Test [15] has as its target C2. The experiment in a line: SPR; equilibrium.
The target in test [16] is C12. Description: SPR; equilibrium.
For test [17], the target named is C10. The experiment in a line: SPR; equilibrium.
Test [18] addresses C3. The experiment in a line: SPR; equilibrium.
Test [19] addresses C9. Description: SPR; equilibrium.
Test [20] deals with C7. Description: SPR; equilibrium.

B1: IL-13 variant B4 (ligand)
chain: PGPVPPSTALSELIEELINITQNQKAPLCNGSMVWSINPTAGMYCAALESLINVSGCSAIEKTQRMLSGFCPHKVAAGQFSSLHDKGSMIEVAQFVKDLLYHLRTLFREGQFNHHHHHH
With B1, the affinity in [1], expressed as Kd, was 108 nM.

B2: IL-13 variant A5 (ligand)
chain: PGPVPPSTALIELIEELINITQNQKAPLCNGSMVWSINLTAGIYCAALESLINVSGCSAIEKTQRMLSGFCPHKVSAGQFSSLHVKGSKIEVAQFVKDLLHHLRALMREGQFNHHHHHH
The molecule B2 showed a Kd in [1] of 50 nM.

B3: IL-13 variant A11 (ligand)
chain: PGPVPPSTAVRELIEELINITQNQKAPLCNGSMVWSINRTAGMYCAALESLINVSGCSAIEKTQRMLSGFCPHKVSAGQFSSLHVRSSKIEVAQFVKDLLFHLRTLFREGQFNHHHHHH
In test [2], B3 had a Kd of 0.391 nM.

B4: IL-13 variant B2 (ligand)
chain: PGPVPPSTALRELIEELINITQNEKAPLCNGSMVWSINLTAGIYCAALESLINVSGCSAIEKTQRMLSGFCPHKVSAGQFSSLHVTGSKIEVAQFVKDLLYHLRALFREGQFNHHHHHH
With B4, the Kd in test [2] is 1.5 nM.

B5: IL-13Rα2 (receptor)
chain: DTEIKVNPPQDFEIVDPGYLGYLYLQWQPPLSLDHFKECTVEYELKYRNIGSETWKTIITKNLHYKDGFDLNKGIEAKIHTLLPWQCTNGSEVQSSWAETTYWISPQGIPETKVQDMDCVYYNWQYLLCSWKPGIGVLLDTNYNLFYWYEGLDHALQCVDYIKADGQNIGCRFPYLEASDYKDFYICVNGSSENKPIRSSYFTFQLQNIVKPLPPVYLTFTRESSCEIKLKWSIPLGPIPARCFDYEIEIREDDTTLVTATVENETYTLKTTNETRQLCFVVRSKVNIYCSDDGIWSEWSDKQCWEGEDLSKKTLLR
modifications: biotinylated (site not stated)
For the molecule B5, the Kd in [3] turned out to be 0.025 nM; in [4], 0.267 nM; in [5], 0.053 nM; in test [6], 0.263 nM; in test [7] it was 5 nM; in test [8] it was 0.379 nM. Further, the Kd in test [9] worked out at 0.218 nM; in test [10] it was 0.259 nM; in test [11], 0.272 nM; in test [12], 53 nM.

B6: IL-13 variant DN (ligand)
chain: PGPVPPSTAVRALIEELINITQNQKAPLCNGSMVWSINRTAGMYCAALESLINVSGCSAIEKTQDMLSGFCPHKVSAGQFSSLHVRSSKIEVAQFVKDLLFHLRTLFREGQFNHHHHHH
B6: in test [13], the Kd turned out to be 0.391 nM.

B7: IL-13Rα1 (receptor)
chain: GGGGAAPTETQPPVTNLSVSVENLCTVIWTWNPPEGASSNCSLWYFSHFGDKQDKKIAPETRRSIEVPLNERICLQVGSQCSTNESEKPSILVEKCISPPEGDPESAVTELQCIWHNLSYMKCSWLPGRNTSPDTNYTLYYWHRSLEKIHQCENIFREGQYFGCSFDLTKVKDSSFEQHSVQIMVKDNAGKIKPSFNIVPLTSRVKPDPPHIKNLSFHNDDLYVQWENPQNFISRCLFYEVEVNNSQTETHNVFYVQEAKCENPEFERNVENTSCFMVPGVLPDTLNTVRIRVKTNKLCYEDDKLWSNWSLNDIFEAQKIEWHEHHHHHH
modifications: biotin on the C-terminal biotin acceptor peptide (coexpressed with BirA ligase)
With B7, the dissociation constant (Kd) in test [4] amounted to 1.9 nM; in [6], 2.06 nM; in [14], 5.9 nM; in [9], 1.18 nM; in [15] it was 4 µM; in [16] it was 15 µM. In addition, the equilibrium dissociation constant (Kd) stood at 264 nM in test [17], 16 µM in test [18], 31 µM in test [19] and 35 µM in test [20].

B8: IL-13 variant C11 (ligand)
chain: PGPVPPSTAHRELIEELVNITQNQKAPLCNGSMVWSINLTAGMYCAALESLINVSGCSAIEKTQRMLSGFCPHKVSAGQFSSLHVTGRKIEVAQFVKDLLLHLKKLFKEGQFNHHHHHH
B8 showed an equilibrium dissociation constant (Kd) in test [2] of 0.0001 nM.

B9: IL-13 variant D7 (ligand)
chain: PGPVPPSTAARELIEELFNITQNQKAPLCNGSMVWSINLTAGMYCAALESLINVSGCSAIEKTKRMLSGFCPHKVSAGQFPSLHVKKTRIEVAQFVKDLLIHLRKLFKEGQFNHHHHHH
Molecule B9 displayed a dissociation constant Kd in test [2] of 0.003 nM.

B10: IL-13 variant C4 (ligand)
chain: PGPVPPSTAVRELIEELVNITQNQKAPLCNGSMVWSINLTAGMYCAALESLINVSGCSAIEKTQRMLSGFCPHKVSAGQFSSLHVRDTRIEVAQFVKDLLNHLKELFTEGQFNHHHHHH
The molecule B10 yielded a Kd in test [2] of 0.393 nM.

Broadly, the Kd is the free concentration of one partner at which half of the binding sites on the other are occupied at equilibrium, for simple one-to-one binding. Higher therefore signals a looser complex.

(Values after patent publication US20150056162A1 (published 2015).)
